These results are taken from patent US20030199671A1 (published 2003).

fluorescein = fluorescein label attached at the ε-amino group of the C-terminal lysine

The target of assay [1] is T1, human IgG1 (human, UniProt P01857-1 1-330 = IgG part).
T1 construct: Calbiochem; human plasma IgG1 in anisotropy studies, myeloma-derived (cat. 400120) in batch/column studies; also called hIgG1
Kind of assay: batch binding, immobilised ligand. The method, then: (§1) IgG targets were diluted into 10 mM phosphate buffer containing 150 mM NaCl and 0.01% Tween 20, pH 7.2 (PBST) or 50 mM Tris buffer containing, 150 mM NaCl and 0.01% Tween-20, pH 7.5 (TBST). Batch (static) binding and elution studies were conducted in a 96-well assay filterplate (Millipore MultiScreen-HV, with 0.45 μm Durapore membrane, product no. MAHVN4510). The target was allowed to incubate with the resin for 1-1.5 hours with shaking at room temperature. Unbound target was collected by centrifugation of samples from the assay plate directly into a low-UV absorbing 96-well collection plate (Costar, product no. 3635 or Greiner, product no. 655801). The unbound target was then quantitated by reading the absorbance at 280 nm (normalized to 1 cm pathlength, 1.4 mg/ml A280 extinction coefficient) of the collection plate on a microplate spectrophotometer (Molecular Devices Corp., SPECTRAmax PLUS) against a buffer blank.
(§2) The percentage bound target was determined by subtracting the mass determined as unbound from the corresponding condition's control values (control non-filtered added directly to the collection plate and/or the negative control). The assay plate was washed (3×) with 200 μl of binding buffer by vacuum filtration followed by addition of 100 μl of various elution conditions (e.g.: 0.1 M sodium bicarbonate buffer, pH 8.5 and/or 0.1 M sodium citrate buffer, pH 4.0). After a 30-60 minute incubation with shaking at room temperature, the eluted target was collected by centrifugation of the assay plate into another collection plate and quantitated in a similar manner. Percent elution of total load was then determined to characterize elution recovery efficiency under various conditions.

Assay [2] addresses T2, human IgG2 (human, UniProt P01859-1 1-326 = IgG part).
T2 construct: Calbiochem; plasma IgG2 in anisotropy studies, myeloma-derived (cat. 400122) in batch/column studies; also called hIgG2
Kind of assay: batch binding, immobilised ligand. The method, then: as §1, §2

Assay [3] concerns the target T3, human IgG3 (human, UniProt P01860-1 1-377).
T3 construct: Calbiochem; plasma IgG3 in anisotropy studies, myeloma-derived (cat. 400124) in batch/column studies; also called hIgG3
Kind of assay: batch binding, immobilised ligand. Here is the method: as §1, §2

In assay [4] the target is T4, human IgG4 (human, UniProt P01861-1 1-327 = IgG part).
T4 construct: Calbiochem; plasma IgG4 in anisotropy studies, myeloma-derived (cat. 400126) in batch/column studies; also called hIgG4
In words: batch binding, immobilised ligand. Here is the method:
as §1, §2

For assay [5], the target named is T1, human IgG1. In words: fluorescence anisotropy; pH 7.4 PBS. Here is the method: (§3) All measurements were performed in 384 well microplates with 20 nM fluorescein-labeled peptide and various concentrations of the IgG isoform in a volume of between 10 and 20 μl using a Tecan Polarion fluorescence polarization plate reader. All binding buffers included 0.01% (v/v) Tween 20 to prevent peptide adsorption to the microplate. The binding mixture was equilibrated for 10 minutes in the microplate at 30° C. prior to performing the measurement.

Assay [6] concerns the target T2, human IgG2. Kind of assay: fluorescence anisotropy; pH 7.4 PBS. The method, then: as §3
The target of assay [7] is T3, human IgG3. Kind of assay: fluorescence anisotropy; pH 7.4 PBS. The method, then:
as §3

The target in assay [8] is T1, human IgG1. Kind of assay: fluorescence anisotropy; pH 7.4, 0.01 M Tris-HCl. The method, then: as §3
Assay [9] deals with T2, human IgG2. In words: fluorescence anisotropy; pH 7.4, 0.01 M Tris-HCl. The method, then: as §3
The target in assay [10] is T3, human IgG3. Kind of assay: fluorescence anisotropy; pH 7.4, 0.01 M Tris-HCl. The method, then:
as §3

Assay [11] has as its target T4, human IgG4. In words: fluorescence anisotropy; pH 7.4, 0.01 M Tris-HCl. Here is the method: as §3
Assay [12] deals with T1, human IgG1. In words: fluorescence anisotropy; pH 5.7, 0.01 M Tris-acetate. The method, then:
as §3

The target of assay [13] is T3, human IgG3. The assay is described as above. The method, then: as §3
Assay [14] deals with T5, Human IgG Fc fragment isolated from plasma (human).
T5 construct: domain: Fc fragment; also called human Fc; Fc protein
Kind of assay: fluorescence anisotropy; pH 8.0, 0.05 M Tris-HCl, 0.2 M NaCl. Here is the method:
as §3

Assay [15] has as its target T1, human IgG1. In words: fluorescence anisotropy; pH 7.4 PBS (second value, unlabelled row). Here is the method:
as §3

In assay [16] the target is T2, human IgG2. The description is as above. The method, then:
as §3

In assay [17] the target is T1, human IgG1. In words: fluorescence anisotropy; pH 9.3, 0.2 M NaCl. The method, then: as §3
Assay [18] addresses T1, human IgG1. Kind of assay: fluorescence anisotropy; pH 9.3, 0.01 M sodium bicarbonate.
In assay [19] the target is T2, human IgG2. The description is as above.
For assay [20], the target named is T3, human IgG3. In words: fluorescence anisotropy; PBS. Here is the method: (§4) Peptides were synthesized, fluorescein-labeled and HPLC purified as described above. Binding studies were performed using either a mixture of human plasma IgG isoforms (the Fc protein) or the individual human plasma IgG isoforms: IgG1, IgG2, IgG3, or IgG4.
(§5) Measurements were performed in 384-well microplates with 2 nM fluorescein-labeled peptide and a varied concentration of the IgG isoform target in a volume of 10 μl using a Tecan Polarion fluorescence polarization plate reader. The Fc binding buffer was 50 mM Tris-HCl, 200 mM NaCl, pH 8.0, 0.01% Tween 20. The IgG binding buffer was PBS with 0.01% Tween 20. The binding mixtures were equilibrated for 10 minutes in the microplate at 30° C. prior to performing the measurements.

Assay [21] deals with T1, human IgG1. In words: anisotropy; pH 4.0 + salt.
In assay [22] the target is T2, human IgG2. Kind of assay: anisotropy; pH 4.0 + salt.
The target in assay [23] is T1, human IgG1. Kind of assay: anisotropy; pH 4.0 - salt.
The target of assay [24] is T2, human IgG2. In words: anisotropy; pH 4.0 - salt.
The target of assay [25] is T1, human IgG1. In words: anisotropy; pH 7.5 - salt.
Assay [26] addresses T2, human IgG2. Kind of assay: anisotropy; pH 7.5 - salt.
For assay [27], the target named is T1, human IgG1. Kind of assay: fluorescence anisotropy; PBS. Here is the method: as §4, §5
Assay [28] has as its target T2, human IgG2. In words: fluorescence anisotropy; PBS. Here is the method: as §4, §5
For assay [29], the target named is T4, human IgG4. In words: fluorescence anisotropy; PBS. Here is the method: as §4, §5
Assay [30] concerns the target T5, Human IgG Fc fragment isolated from …. In words: fluorescence anisotropy; 50 mM Tris-HCl, 200 mM NaCl, pH 8.0. The method, then: as §4, §5

T3 sequence (P01860 other isoform, or with tags, fused parts or gaps): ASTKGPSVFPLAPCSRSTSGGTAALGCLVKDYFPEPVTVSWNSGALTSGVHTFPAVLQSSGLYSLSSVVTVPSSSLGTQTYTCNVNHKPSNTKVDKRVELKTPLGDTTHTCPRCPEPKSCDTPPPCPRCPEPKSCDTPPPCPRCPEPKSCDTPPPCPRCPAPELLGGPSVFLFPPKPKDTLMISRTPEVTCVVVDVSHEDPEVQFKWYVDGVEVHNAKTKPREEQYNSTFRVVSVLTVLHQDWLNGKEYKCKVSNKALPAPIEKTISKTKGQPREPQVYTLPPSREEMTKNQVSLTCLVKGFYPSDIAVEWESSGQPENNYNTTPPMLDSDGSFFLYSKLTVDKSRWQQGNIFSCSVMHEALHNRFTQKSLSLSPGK
T2 sequence (P01859 other isoform, or with tags, fused parts or gaps): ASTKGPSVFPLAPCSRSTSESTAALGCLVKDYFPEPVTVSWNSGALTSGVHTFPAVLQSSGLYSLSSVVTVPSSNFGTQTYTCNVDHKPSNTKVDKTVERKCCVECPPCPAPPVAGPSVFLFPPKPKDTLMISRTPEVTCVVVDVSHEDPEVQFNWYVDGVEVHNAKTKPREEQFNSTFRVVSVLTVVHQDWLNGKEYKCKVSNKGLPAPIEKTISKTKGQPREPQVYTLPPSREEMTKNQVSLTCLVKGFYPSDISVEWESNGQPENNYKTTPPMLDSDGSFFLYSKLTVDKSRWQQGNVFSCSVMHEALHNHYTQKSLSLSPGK
T1 sequence (P01857 other isoform, or with tags, fused parts or gaps): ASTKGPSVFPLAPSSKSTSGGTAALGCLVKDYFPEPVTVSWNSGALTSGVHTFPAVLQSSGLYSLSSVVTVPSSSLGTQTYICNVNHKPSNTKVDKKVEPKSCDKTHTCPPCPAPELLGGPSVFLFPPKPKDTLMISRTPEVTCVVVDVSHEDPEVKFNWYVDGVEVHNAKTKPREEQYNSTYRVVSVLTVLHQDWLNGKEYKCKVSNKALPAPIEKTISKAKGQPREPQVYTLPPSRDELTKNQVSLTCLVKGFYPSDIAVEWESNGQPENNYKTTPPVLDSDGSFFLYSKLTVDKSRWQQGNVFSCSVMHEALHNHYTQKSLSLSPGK
T4 sequence (P01861 other isoform, or with tags, fused parts or gaps): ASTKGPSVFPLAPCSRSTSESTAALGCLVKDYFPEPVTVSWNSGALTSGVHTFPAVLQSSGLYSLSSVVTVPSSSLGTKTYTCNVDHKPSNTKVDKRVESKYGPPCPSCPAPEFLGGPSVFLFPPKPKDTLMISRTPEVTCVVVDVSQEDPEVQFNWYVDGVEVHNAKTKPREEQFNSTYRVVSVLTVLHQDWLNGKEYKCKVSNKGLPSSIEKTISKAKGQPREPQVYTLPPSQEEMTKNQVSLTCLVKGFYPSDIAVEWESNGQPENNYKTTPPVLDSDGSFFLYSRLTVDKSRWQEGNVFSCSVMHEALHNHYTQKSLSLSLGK

B1: DX252 (peptide)
peptide: Ac-GDDDHCYWFREWFNSECPHGEPGPEGGGK-NH2
modifications: not fully specified (bridges); printed as Ac-GDDDHCYWFREWFNSECPHGEPGPEGGGK-NH2; cysteine pairing not given here; also: fluorescein-labelled form in anisotropy assays, place not given here
notes: Fluorescein-labelled in anisotropy assays; immobilised in batch/column assays
In the case of B1, the “bdg % (of Total Load)” value in the assay with human IgG1 [1] came to 37%; with human IgG2 [2] it was 37%; in the assay with human IgG3 [3], 44%; with human IgG4 [4] it was 14%. Moreover, the Kd in the assay with human IgG1 [5] was found to be 1900 nM; with human IgG2 [6] it was 3600 nM; with human IgG3 [7], 2700 nM; with human IgG1 [8], 2100 nM; with human IgG2 [9], 3400 nM; with human IgG3 [10], 2300 nM. Further, the Kd is 3200 nM in the assay with human IgG4 [11]; 100 nM in the assay with human IgG1 [12]; 60 nM with human IgG3 [13]; 5100 nM in assay [14]; 2900 nM with human IgG1 [15]; 3000 nM with human IgG2 [16].

B2: DX254 (peptide)
peptide: Ac-AGYYWCNYWGLCPDQGTPGPEGGGK-NH2
modifications: not fully specified (bridges); printed as Ac-AGYYWCNYWGLCPDQGTPGPEGGGK-NH2; cysteine pairing not given here; also: fluorescein-labelled form in anisotropy assays, place not given here
notes: Fluorescein-labelled in anisotropy assays; immobilised in batch assays
As to B2, the Kd was 140 nM in the assay with human IgG1 [5]; 1100 nM with human IgG2 [6]; 3000 nM in the assay with human IgG3 [7]; 600 nM with human IgG1 [17]; 2000 nM with human IgG2 [9]; 2900 nM with human IgG4 [11]. The Kd with human IgG1 [12] is 90 nM; in the assay with human IgG3 [13], 300 nM; with human IgG1 [18] it was 400 nM; with human IgG2 [19], 2000 nM; in [14], 1600 nM; with human IgG1 [15] it was 400 nM.

B3: DX300 (peptide)
peptide: Ac-AGKYWCSFWGLQCKTGTPGPEGGGK(fluorescein)-NH2
modifications: not fully specified (bridges); printed as Ac-AGKYWCSFWGLQCKTGTPGPEGGGK-NH2; cysteine pairing not given here
notes: also called fluoresceinated DX250
Take B3: in the assay with human IgG3 [20], binding was characterised by a dissociation constant (Kd) of 4100 nM.

Ac-AGTYWCTFWELPCDPAPGPEGGGK-NH2 (cysteine pairing not given here, immobilised in batch/column assays) [DX404]: the Kd is 2000 nM with human IgG1 [21]; 2000 nM with human IgG2 [22]; 1500 nM with human IgG1 [23]; 1000 nM with human IgG2 [24]; 8800 nM with human IgG1 [25]; 8600 nM in the assay with human IgG2 [26].

B4: DX301 (peptide)
peptide: Ac-GDRRACSRDWSGALVWCAGHEPGPEGGGK(fluorescein)-NH2
modifications: not fully specified (bridges); printed as Ac-GDRRACSRDWSGALVWCAGHEPGPEGGGK-NH2; cysteine pairing not given here
notes: also called fluoresceinated DX253
For B4, the Kd with human IgG1 [27] turned out to be 3600 nM; in the assay with human IgG2 [28] it was 2300 nM; with human IgG4 [29], 9700 nM; in [30], 6800 nM.
